± gives the standard deviation of the averaged measurements.
Assay: total protein half-life in vivo (active degradation + dilution); higher = more stable protein
[1] = E. coli NCM3722 delta-clpP delta-lon delta-hslV, growth: N-lim chemostat, doubling time 6 h
[2] = E. coli NCM3722 delta-hslV, growth: N-lim chemostat, doubling time 6 h
[3] = E. coli NCM3722 delta-lon, growth: N-lim chemostat, doubling time 6 h
[4] = E. coli NCM3722 delta-smpB, growth: N-lim chemostat, doubling time 6 h
[5] = wild type E. coli NCM3722, growth: C-lim chemostat, doubling time 3 h
[6] = wild type E. coli NCM3722, growth: C-lim chemostat, doubling time 6 h
[7] = wild type E. coli NCM3722, growth: C-lim chemostat, doubling time 12 h
[8] = wild type E. coli NCM3722, growth: N-lim chemostat, doubling time 6 h
[9] = wild type E. coli NCM3722, growth: N-lim chemostat, doubling time 12 h
[10] = wild type E. coli NCM3722, growth: P-lim chemostat, doubling time 6 h
[11] = wild type E. coli NCM3722, growth: P-lim chemostat, doubling time 12 h
[12] = E. coli NCM3722 delta-clpP, growth: N-lim chemostat, doubling time 6 h

Row | Sequence | total protein half-life in vivo [1] | total protein half-life in vivo [2] | total protein half-life in vivo [3] | total protein half-life in vivo [4] | total protein half-life in vivo [5] | total protein half-life in vivo [6] | total protein half-life in vivo [7] | total protein half-life in vivo [8] | total protein half-life in vivo [9] | total protein half-life in vivo [10] | total protein half-life in vivo [11] | total protein half-life in vivo [12]
1 | MNKLIELRRAKRLALSLLLIAAATFVVTLFLPPNFWVSGVKAIAEAAMVGALADWFAVVALFRRVPIPIISRHTAIIPRNKDRIGENLGQFVQEKFLDTQSLVALIRRHEPALLIGNWFSQPENARRVGQHLLQIMSGFLELTDDARIQRLLKRAVHRAIDKVDLSGTSALMLESMTKNDRHQVLLDTLIAQLIALLQRDKSRKFIAQQIVRWLESEHPLKAKILPTEWLGEHSAELVSDAVNSLLDDISRDRAHQIRHAFDRATFALIDKLKNDPEMAARADAVKSYLKEDEAFNRYLSELWGDLREWLKVDINSEDSRVKERIARAGQWFGETLIADDALRASLNGHLEQAAHRVAPEFSAFLTRHISDTVKSWDARDMSRQIELNIGKDLQFIRVNGTLVGGCIGLILYLLSQLPALFPLGNF | 5.72 ± 0.23 h | 6.12 ± 0.14 h | 5.6 ± 0.16 h | 5.794 ± 0.016 h | 3.17 ± 0.071 h | 5.3 ± 0.096 h | 12.3 ± 2.3 h | 6.365 ± 0.03 h | 12.37 ± 0.058 h | 5.7 ± 0.39 h | 12.4 ± 1.6 h | –
2 | MNKLQSYFIASVLYVMTPHAFAQGTVTIYLPGEQQTLSVGPVENVVQLVTQPQLRDRLWWPGALLTDSAAKAKALKDYQHVMAQLASWEAEADDDVAATIKSVRQQLLNLNITGRLPVKLDPDFVRVDENSNPPLVGDYTLYTVQRPVTITLLGAVSGAGQLPWQAGRSVTDYLQDHPRLAGADKNNVMVITPEGETVVAPVALWNKRHVEPPPGSQLWLGFSAHVLPEKYADLNDQIVSVLTQRVPD | – | – | – | – | – | – | – | – | 7.71 h | – | – | –
3 | MNKNRGFTPLAVVLMLSGSLALTGCDDKQAQQGGQQMPAVGVVTVKTEPLQITTELPGRTSAYRIAEVRPQVSGIILKRNFKEGSDIEAGVSLYQIDPATYQATYDSAKGDLAKAQAAANIAQLTVNRYQKLLGTQYISKQEYDQALADAQQANAAVTAAKAAVETARINLAYTKVTSPISGRIGKSNVTEGALVQNGQATALATVQQLDPIYVDVTQSSNDFLRLKQELANGTLKQENGKAKVSLITSDGIKFPQDGTLEFSDVTVDQTTGSITLRAIFPNPDHTLLPGMFVRARLEEGLNPNAILVPQQGVTRTPRGDATVLVVGADDKVETRPIVASQAIGDKWLVTEGLKAGDRVVISGLQKVRPGVQVKAQEVTADNNQQAASGAQPEQSKS [P0AE06] | 5.95 ± 0.32 h | 6.3 ± 0.28 h | 6.62 ± 0.54 h | 5.93 ± 0.21 h | 2.921 ± 0.024 h | 5.84 ± 0.46 h | 12.1 ± 0.26 h | 6.134 ± 0.05 h | 13.33 ± 0.11 h | 5.814 ± 0.041 h | 12.5 ± 0.88 h | –
4 | MNKSQLIDKIAAGADISKAAAGRALDAIIASVTESLKEGDDVALVGFGTFAVKERAARTGRNPQTGKEITIAAAKVPSFRAGKALKDAVN [P0ACF4] | 7.01 ± 0.69 h | 5.94 ± 0.61 h | 6.96 ± 0.96 h | 5.51 ± 0.24 h | 2.88 ± 0.054 h | 5.1 ± 0.35 h | 7.44 ± 0.28 h | 5.035 ± 0.04 h | 10.813 ± 0.0038 h | 4.6 ± 0.72 h | 10.8 ± 0.92 h | –
5 | MNKTITALAIMMASFAANASVLPETPVPFKSGTGAIDNDTVYIGLGSAGTAWYKLDTQAKDKKWTALAAFPGGPRDQATSAFIDGNLYVFGGIGKNSEGLTQVFNDVHKYNPKTNSWVKLMSHAPMGMAGHVTFVHNGKAYVTGGVNQNIFNGYFEDLNEAGKDSTAIDKINAHYFDKKAEDYFFNKFLLSFDPSTQQWSYAGESPWYGTAGAAVVNKGDKTWLINGEAKPGLRTDAVFELDFTGNNLKWNKLAPVSSPDGVAGGFAGISNDSLIFAGGAGFKGSRENYQNGKNYAHEGLKKSYSTDIHLWHNGKWDKSGELSQGRAYGVSLPWNNSLLIIGGETAGGKAVTDSVLITVKDNKVTVQN | 5.85 ± 0.22 h | 5.99 ± 0.77 h | 6.24 ± 0.61 h | 6.27 ± 1.1 h | 3.12 ± 0.2 h | 6.33 ± 0.044 h | 12.6 ± 1.2 h | 6.32 ± 0.1 h | 11.5 ± 1.4 h | 5.97 ± 0.41 h | 13.9 ± 1.4 h | –
6 | MNKTQLIDVIAEKAELSKTQAKAALESTLAAITESLKEGDAVQLVGFGTFKVNHRAERTGRNPQTGKEIKIAAANVPAFVSGKALKDAVK [P0ACF0] | 7.47 ± 0.039 h | 5.45 ± 0.31 h | 6.06 ± 0.22 h | 5.39 ± 0.12 h | 3.04 ± 0.19 h | 5.55 ± 0.72 h | 10 ± 0.23 h | 5.15 ± 0.27 h | 11.91 ± 0.1 h | 4.73 ± 0.92 h | 11.1 ± 1.5 h | 6.29 ± 0.51 h
7 | MNKVVLLCRPGFEKECAAEITDKAGQREIFGFARVKENAGYVIYECYQPDDGDKLIRELPFSSLIFARQWFVVGELLQHLPPEDRITPIVGMLQGVVEKGGELRVEVADTNESKELLKFCRKFTVPLRAALRDAGVLANYETPKRPVVHVFFIAPGCCYTGYSYSNNNSPFYMGIPRLKFPADAPSRSTLKLEEAFHVFIPADEWDERLANGMWAVDLGACPGGWTYQLVKRNMWVYSVDNGPMAQSLMDTGQVTWLREDGFKFRPTRSNISWMVCDMVEKPAKVAALMAQWLVNGWCRETIFNLKLPMKKRYEEVSHNLAYIQAQLDEHGINAQIQARQLYHDREEVTVHVRRIWAAVGGRRDER [P0ADR6] | 5.236 ± 0.0068 h | 4.77 ± 0.28 h | 5.75 ± 1 h | 4.81 ± 0.15 h | 3.45 ± 0.77 h | 5.93 ± 0.44 h | 10.2 ± 0.49 h | 4.78 ± 0.28 h | 8.148 ± 0.00089 h | 5.72 ± 0.16 h | 11.6 ± 0.63 h | 4.78 ± 0.26 h
